Laboratory results taken from the DeepSol protein solubility set.

Assay: soluble on expression in E. coli; label from the status in PepcDB or PDB records

Row | Sequence | soluble on expression in E. coli
1 | MISNKNIFNRFQQWMDTFLMLELQWFLIYANVANQMIVYGCCQMSKKTSNETPKVFLMLGHFFVSLKYPGATETKNWSKKLPFHYFHKYV | not soluble
2 | MGSDKIHHHHHHMKLLMIELHQEDCSNIAVSEKIKDAELNLVNVREDGDYTHIDAIFLGDMFKENVISTLRKEKAFNINLKMKSRSEIWVSYDILTTAAWRNFSSLGCTVVPPLRVANGVEKWFVYTPDEISQRDIKRQLEMDNATHISRIRELTLKSFLKVIFNMDFLSDFIDTMEALTDLQVKTIKQAYVNGYYDYPRRCTLGDLAKINGISKNAMAKRLKSVEKKIFECLFGYI | not soluble
3 | GSHMERPESELIRQSWRVVSRSPLEHGTVLFARLFALEPSLLPLFQYNGRQFSSPEDSLSSPEFLDHIRKVMLVIDAAVTNVEDLSSLEEYLTSLGRKHRAVGVRLSSFSTVGESLLYMLEKSLGPDFTPATRTAWSRLYGAVVQAMSRGWDGE | soluble
4 | MKPYLMGNNPCGADATLFAFAASLLSPVFETPIRAAAESHPNLIAYMARMRTRYYPDFQGSGVFAPALEHHHHHH | not soluble
5 | MGSDKIHHHHHHMSKITFKDIYIDGNKITEDSRKAIYLLPPQPLKYASNTWIYKTMPTMNQWLKDIEVQKKMHLNQSSYHLSFSFPANEKIDEVLLEKIRELGFQIGVLELYVIEAKALKELSRKRDVDIQLVSSNNINDYLHVYDAFARPFGDSYANMVKQHIYSSYNLDDIERLVAYVNHQPVGIVDIIMTDKTIEIDGFGVLEEFQHQGIGSEIQAYVGRMANERPVILVADGKDTAKDMYLRQGYVYQGFKYHILKENI | not soluble
6 | MSDVTVVNCPTCGKPVVWGEISPFRPFCSKRCQLIDLGEWAAEEKRIASSGDQSDSDDWSEER | not soluble
7 | MKLKLFFHIVLLCFSLPIWAMKTVDVTASPKMDDQARMNLAQEFANKQQWIDVFNIMYPMALEGNITAQSNLGMLYNLGRGTVRDYEKAYWWFSEAAEKGSVKGLNNLGVMYLRGDYVKQNTEQAIKLFERTAQAKDTDAMMMLSNIYRLQNQPEKIIGMAEESRLEHHHHHH | not soluble
8 | MGHHHHHHSHMCPRCGKQFNHSSNLNRHMNVHRGVKSHSCGICGKCFTQKSTLHDHLNLHSGARPYRCSYCD | soluble
9 | MKFGPASPKDAIGGVTVHTLRQGPLVLKKGTTIGPAEVEALERAGIKDVVVVRMEEGDVSEDVAAASIALAVGGEGIHVERAFTGRANLFAARPGVLVIDRAAVDRINNIDEAITFATLTAYKPVVEGEMVGTVKIIPFGVEGALRDAAVKAAGRDVLKIAPYAIKRVGVVSTLLPGLSSKVIDKTLRVTAERLAPSGAGIIAERRVQHDEHALSAAIKELLALGAELVIVFGASAIADRRDVIPAAVTGIGGEIEHFGMPVDPGNLLLIARAEGVPVLGAPGCARSPVENGFDWVLMRLLAGIKVTRAELMGMGVGGLLMEIVTRPQPRARPEIEGNSQVAAIVLAAGRSTRMGGPNKLLAELDGKKLVRIATEQALASKASEVIVVTGHQTELVEQALQGLKVKFARNPDFAGGIASSVKAGIAAVPEACDGAVVCLGDMPLIDAGLIDRLIDSFAPDRGNLIVVPVSEGRRGNPVLWSRRFFRELMTLDGDVGARHLIAKHTEAVAEVPVDGEGAFLDIDTPQALEAARRGLEHHHHHH | not soluble
10 | MASTIYTCKECGSDLNLNPNDLFPPDFYFEAGNKGTLSFAAVDAEKFRFEKEDKIMPFFETLNYWGIQRKRTKIKCTSCNHLIGYIYDDGPPLTGGIGQYGFGPSQVIPRAPRYRFKTKARQDGWQYGGLTAFWN | not soluble
11 | RADEQAFLVALYKYMKERKTPIERIPYLGFKQINLWTMFQAAQKLGGYETITARRQWKHIYDELGGNPGSTSAATCTRRHYERLILPYERFIKGEEDKPLPPIKPRK | soluble
12 | EDMKGKIRVYCRLRPLCEKEIIAKERNAIRSVDEFTVEHLWKDDKAKQHMYDRVFDGNATQDDVFEDTKYLVQSAVDGYNVCIFAYGQTGSGKTFTIYGADSNPGLTPRAMSELFRIMKKDSNKFSFSLKAYMVELYQDTLVDLLLPKQAKRLKLDIKKDSKGMVSVENVTVVSISTYEELKTIIQRGSEQRHTTGTLMNEQSSRSHLIVSVIIESTNLQTQAIARGKLSFVDLAGSERVKKSGSAGNQLKEAQSINKSLSALGDVISALSSGNQHIPYRNHKLTMLMSDSLGGNAKTLMFVNISPAESNLDETHNSLTYASRVRSIVNDPSKNVSSKEVARLKKLVSYWKEQAGRKGDDEELEEIQDE | soluble
13 | MKIAVLGATGRAGSAIVAEARRRGHEVLAVVRDPQKAADRLGATVATLVKEPLVLTEADLDSVDAVVDALSVPWGSGRGYLHLDFATHLVSLLRNSDTLAVFILGSASLAMPGADHPMILDFPESAASQPWYDGALYQYYEYQFLQMNANVNWIGISPSEAFPSGPATSYVAGKDTLLVGEDGQSHITTGNMALAILDQLEHPTAIRDRIVVRDADLEHHHHHH | soluble
14 | MIRISDAAQAHFAKLLANQEEGTQIRVFVINPGTPNAECGVSYCPPDAVEATDTALKFDLLTAYVDELSAPYLEDAEIDFVTDQLGSQLTLKAPNAKMRKVADDAPLMERVEYMLQSQINPQLAGHGGRVSLMEITEDGYAILQFGGGCNGCSMVDVTLKEGIEKQLLNEFPELKGVRDLTEHQRGEHSYY | soluble
15 | MSYYHHHHHHLESTSLYKKAGSENLYFQGARDQGADEAREYEPGQPGMYELEFPAPQLSSSDGRGPVLVHALEGFSDAGHAIRLAAAHLKAALDTELVASFAIDELLDYRSRRPLMTFKTDHFTHSDDPELSLYALRDSIGTPFLLLAGLEPDLKWERFITAVRLLAERLGVRQTIGLGTVPMAVPHTRPITMTAHSNNRELISDFQPSISEIQVPGSASNLLEYRMAQHGHEVVGFTVHVPHYLTQTDYPAAAQALLEQVAKTGSLQLPLAVLAEAAAEVQAKIDEQVQASAEVAQVVAALERQYDAFIDAQENRSLLTRDEDLPSGDELGAEFERFLAQQAEKKSDDDP | soluble
16 | MGSDKIHHHHHHMIPISLIQETAEGLMDKAAIEIPQDYLDGLQEAARTEDGDLSSFVLKAMLDNYEAAKEDRRAMCGDTGVPRWFVKMGNDASVEGGMVALEAALRRATANATNGVPLRPNRVHPLWRTDHNNNVGIGAPEIEYGFEPEGEWIDLITVHKGGLFGTDYRMLFPSDGLQGIKRFYLDSLMAFGKRGLACQPAIIGIGLGGSKDICMTLGKRASTLRVVGSRNSDPRIAEMEDEFKALGNSIGMGAMGFVGKNMVIDCNIEVGYCHTGGLPMSVHAFCLSSRRAVARIHADGRVEHRTDPDWFTDYQRRETIDWPLAQEAAE | not soluble
17 | MSLHISVMGELDSKADVDRLLESIDENCDCEIHLTFLDANVVPREIVEKIVKLKEHNKCKIFVLKAYLYSYFLSLGISCFLVKKKSILNKDFESKEKLSSQTFEPEKVEKFLWDIYDKYGFDFTEYRKDSIIRRIKISMLRYCMTNFDEFSHLALTDQDVFEQLFLDFSINTTNFFRDPEVFMFLREKVLLFLDSYSHIRIWCVGCSNGKEPYSLAIILKELGMLHKVQIYATDINPYVIEEAKNGLYSVSTINTDIANYKKSGGSKNFTDYFEVNGNYMKVKDDFKDNILFFQHSVIEKGILNEFQMILCRNVMIYFDIPLQKKVLRHFYNSLDSGGFLVMGKSEGMLLNNGYEYFADYNEKYSVYRRKEGHHHHHH | soluble
18 | MASYYEILDVPRSASADDIKKAYRRKALQWHPDKNPDNKEFAEKKFKEVAEAYEVLSDKHKREIYDRYGREGLTGTGTGPSRAEAGSGGPGFTFTFRSPEEVFREFFGSGDPFAELFDDLGPFSELQNRGSRHSGPFFTFSSSFPGHSDFSSSSFSFSPGAGAFRSVSTSTTFVQGRRITTRRIMENGQERVEVEEDGQLKSVTINGVPDDLALGLELSRREQQPSVTSRSGGTQVQQTPASCPLDSDLSEDEDLQLAMAYSLSEMEAAGKKPAGGREAQHRRQGRPKAQHQDPGLGGTQEGARGEATKRSPSPEEKASRCLIL | soluble
19 | PYSSGVDENYYQDLRNRFNHGELYSADSIPSLGGKIFKTAGGREVYGGGGIIPDIFIPLDTAGLNSYMMKVEDSDLIPRYAFLYSDANRVSLSRFKTVEELGAYLDRTYLIFDFASFAQRYGIPMRTSLINEARNRIKKYINAYIAMNFFDLQGYYQLLLHDDPFILQAISLIKEGKTFPLIYDQKGTQSTDPAA | not soluble
